The target in assay [1] is T1, recombinant human CD79b protein (human, UniProt P40259 29-159, limits assumed).
T1 sequence (looked up): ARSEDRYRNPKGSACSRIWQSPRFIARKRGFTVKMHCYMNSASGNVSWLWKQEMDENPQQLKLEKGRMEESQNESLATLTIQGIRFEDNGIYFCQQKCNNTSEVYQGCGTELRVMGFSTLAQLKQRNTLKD
The assay is described as follows: Octet assay.

Assay [2] has as its target T1, recombinant human CD79b protein. The assay is described as follows: column EC50(ng/ml) of the drawn table; the table names no assay, the filing's only titration is the ELISA on recombinant human CD79b protein of FIG. 2B.
The target is the same in assay [3]. The assay is described as follows: ELISA on recombinant human CD79b protein. A general note: In an ELISA, binding on a coated surface is turned into a signal by an enzyme label.

This note sets out measurements from patent publication US20210317209A1 (University of Texas, published 2021).

B1: anti-human CD79b monoclonal antibody clone 14 (IgG1) (antibody, V domains shown)
VH: EVQLQESGPELKKPGETVKISCKASGYTFTDYSMHWVKQAPGKGLKWMGWINTETGEPTYADDFKGRFAFSLETSASTAYLQINNLKNDDTATYFCNMDSWGQGTSVTVSS
VL: QIVLTQSPAIMSASPGEKVTMTCSASSSVSYMWWYHQKPGSSPRLLIFDTSNLASGVPVRFSGSGSGTSYSLTISRMEAEDAATYYCQQWTSYPYTFGGGTKLEIK
notes: Murine hybridoma antibody, IgG1; It was conjugated with a fluorochrome for cell staining
As for B1, the Kd (in general, the equilibrium constant for the complex coming apart) in assay [1] worked out at 1.44 nM. Moreover, in assay [2], the EC50 (commonly the concentration that produces a half-maximal response) stood at 0.0162 µg/mL. Further, in assay [3], the EC50 (read off the curve) (as a rule, the midpoint of the concentration-response curve) is around 0.02 µg/mL.
